Measurements: patent publication US11542537B2, “High-purity steviol glycosides” (PureCircle Sdn Bhd, priority 2012, dated 2023)

Columns and labels:
Type in all cases: biochemical
[1] = Catalytic test of in-vitro expressed UDP-glucosyltransferases, Rebaudioside A to Rebaudioside D (HPLC CAD); details: 0.5 mM Rebaudioside A, 30° C., T24h sample; for Steviol glycoside conversion in reaction mixture: Reb UNK: Reb UNK later identified as reb D2; for Steviol glycoside conversion in reaction mixture: Reb A: remaining substrate
Experimental: 18 μL of plasmid solution (containing approximately 1.5 μg of plasmid) was used for in-vitro expression according to the Promega S30 T7 High-Yield Protein Expression System (ref: L1110) kit. The expression medium was produced as follows:
The prepared expression medium mix was added to the plasmid solution and the solution was allowed to incubate at 30° C. for 3 hours while mixing the mixture every 45 minutes. 5 μL of the mixture was frozen whereas the remainder was used for the catalytic test for the conversion of Rebaudioside A to Rebaudioside D.
(§1) 430 μL of a reaction mixture containing 0.5 mM Rebaudioside A, 3 mM MgCl2, 50 mM phosphate buffer (pH7.2) and 2.5 mM UDP-glucose was added to a 1.5 mL sterile microtube. 52 μL of the enzyme expression medium was added and the resulting mixture was allowed to react at 30° C. for 24 hours. 125 μL samples were taken after 2 hours, 16 hours and 24 hours and added to a 115 μL of 60% methanol and 10 μL of 2 N H2SO4. The quenched sample was centrifuged at 18,000 g for 2 minutes at RT. 200 μL was transferred to an HPLC vial and analyzed.
The HPLC assay was performed as follows:
as §1, with “RT.” for “RT. 200 μL was transferred to an HPLC vial and analyzed.”
The HPLC assay was performed as described in EXAMPLE 20.

[2] = LCMS of Stevioside conversion products with UGTSL, UGTSL2, UGTLB; details: UGTSL2 2 hrs, UGTLB 2 hrs, UGTSL 22 hrs
Experimental: (§2) Conversion of stevioside with UGTSL and UGTSL2 was conducted in similar manner to Example 28, and the conversion of rubusoside with UGTSL and UGTSL2 was conducted similarly to Example 29. Conversions of rubusoside and stevioside with UGTLB was conducted similarly to Example 32.
(§3) The reaction mixtures were analyzed by LCMS to determine all reaction products.

[3] = LCMS of Rubusoside conversion products with UGTSL, UGTSL2, UGTLB; details: UGTSL2 2 hrs, UGTLB 5 hrs, UGTSL 45 hrs
Experimental: as §2, §3

[4] = Activity for Rubusoside to Rebaudioside E conversion (UGTSL, UGTSL2, UGTLB lysates); details: based on initial concentration of Rubusoside; reaction time 45 h. (UGTSL), 2 h. (UGTSL2)
Experimental: Activity tests were performed at 3 mL scale with 600 μL of lysate for the transformation of Rubusoside using 0.5 mM of substrate, 2.5 mM of UDP-Glucose and 3 mM MgCl2 in 50 mM Sodium Phosphate buffer at pH 7.2. The HPLC assay was performed as described in EXAMPLE 20.
Activity tests were performed at 3 mL scale with 600 μL of lysate for the transformation of Rubusoside using 0.5 mM of substrate, 2.5 mM of UDP-Glucose and 3 mM MgCl2 in 50 mM Sodium Phosphate buffer at pH 7.2. Samples were taken and analyzed by HPLC. The corresponding chromatogram is depicted in FIG. 65.

| Molecule | Steviol glycoside conversion in reaction mixture: Reb D [1] | Steviol glycoside conversion in reaction mixture: Reb UNK [1] | Steviol glycoside conversion in reaction mixture: Reb A [1] | LC-MS, peak area ratio (%) Reb E [2] | LC-MS, peak area ratio (%) Stev [2] | LC-MS, peak area ratio (%) Unknown peak #2 (MW966) RT = 26.50 min [2] | LC-MS, peak area ratio (%) Reb D [3] | LC-MS, peak area ratio (%) Reb E [3] | LC-MS, peak area ratio (%) Rub [3] | LC-MS, peak area ratio (%) Unknown peak #1 (MW804) RT 30.70 min [3] | LC-MS, peak area ratio (%) Unknown peak #2 (MW804) RT 49.50 min [3] | LC-MS, peak area ratio (%) Unknown peak #3 (MW804) RT 50.40 min [3] | other results |
| --- | --- | --- | --- | --- | --- | --- | --- | --- | --- | --- | --- | --- | --- |
| S115N06 C2: UDP-glucoronosyl/UDP-glucosyl transferase family protein, Arabidopsis lyrata subsp. lyrata, SEQ ID 7 (protein, listed as Arabidopsis lyrata) MDDKKEEVMHIAMFPWLAMGHLLPFLRLSKLLAQKGHKISFISTPRNILRLPKLPSNLSSSITFVSFPLPSISGLPPSSESSMDVPYNKQQSLKAAFDLLQPPLTEFLRLSSPDWIIYDYASHWLPSIAKELGISKAFFSLFNAATLCFMGPSSSLIEESRSTPEDFTVVPPWVPFKSTIVFRYHEVSRYVEKTDEDVTGVSDSVRFGYTIDGSDAVFVRSCPEFEPEWFSLLQDLYRKPVFPIGFLPPVIEDDDDDTTWVRIKEWLDKQRVNSVVYVSLGTEASLRREELTELALGLEKSETPFFWVLRNEPQIPDGFEERVKGRGMVHVGWVPQVKILSHESVGGFLTHCGWNSVVEGIGFGKVPIFLPVLNEQGLNTRLLQGKGLGVEVLRDERDGSFGSDSVADSVRLVMIDDAGEEIREKVKLMKGLFGNMDENIRYVDELVGFMRNDESSQLKEEEEEDDCSDDQSSEVSSETDEKELNLDLKEEKRRISVYKSLSSEFDDYVANEKMG | 0.28 % area | 3.9 % area | 95.8 % area |  |  |  |  |  |  |  |  |  |  |
| S115N01 A1: UDP-glucosyltransferase Os03g0702500, Oryza sativa Japonica Group, SEQ ID 3 (protein, listed as Oryza sativa) MDDAHSSQSPLHVVIFPWLAFGHLLPCLDLAERLAARGHRVSFVSTPRNLARLPPVRPELAELVDLVALPLPRVDGLPDGAEATSDVPFDKFELHRKAFDGLAAPFSAFLDTACAGGKRPDWVLADLMHHWVALASQERGVPCAMILPCSAAVVASSAPPTESSADQREAIVRSMGTAAPSFEAKRATEEFATEGASGVSIMTRYSLTLQRSKLVAMRSCPELEPGAFTILTRFYGKPVVPFGLLPPRPDGARGVSKNGKHDAIMQWLDAQPAKSVVYVALGSEAPMSADLLRELAHGLDLAGTRFLWAMRKPAGVDADSVLPAGFLGRTGERGLVTTRWAPQVSILAHAAVCAFLTHCGWGSVVEGLQFGHPLIMLPILGDQGPNARILEGRKLGVAVPRNDEDGSFDRGGVAGAVRAVVVEEEGKTFFANARKLQEIVADREREERCIDEFVQHLTSWNELKNNSDGQYP | 2.1 % area |  | 96.7 % area |  |  |  |  |  |  |  |  |  |  |
| S115N01 G2: UDP-glycosyltransferase, Avena strigosa, SEQ ID 4 (protein, listed as Avena strigosa) MAVKDEQQSPLHILLFPFLAPGHLIPIADMAALFASRGVRCTILTTPVNAAIIRSAVDRANDAFRGSDCPAIDISVVPFPDVGLPPGVENGNALTSPADRLKFFQAVAELREPFDRFLADNHPDAVVSDSFFHWSTDAAAEHGVPRLGFLGSSMFAGSCNESTLHNNPLETAADDPDALVSLPGLPHRVELRRSQMMDPKKRPDHWALLESVNAADQKSFGEVFNSFHELEPDYVEHYQTTLGRRTWLVGPVALASKDMAGRGSTSARSPDADSCLRWLDTKQPGSVVYVSFGTLIRFSPAELHELARGLDLSGKNFVWVLGRAGPDSSEWMPQGFADLITPRGDRGFIIRGWAPQMLILNHRALGGFVTHCGWNSTLESVSAGVPMVTWPRFADQFQNEKLIVEVLKVGVSIGAKDYGSGIENHDVIRGEVIAESIGKLMGSSEESDAIQRKAKDLGAEARSAVENGGSSYNDVGRLMDELMARRSSVKVGEDIIPTNDGL | 0.6 % area |  | 99.4 % area |  |  |  |  |  |  |  |  |  |  |
| S115N06 E1: hypothetical protein OsJ_04191, Oryza sativa Japonica Group, SEQ ID 6 (protein, listed as Oryza sativa) MHVVMLPWLAFGHILPFAEFAKRVARQGHRVTLFSTPRNTRRLIDVPPSLAGRIRVVDIPLPRVEHLPEHAEATIDLPSNDLRPYLRRAYDEAFSRELSRLLQETGPSRPDWVLADYAAYWAPAAASRHGVPCAFLSLFGAAALCFFGPAETLQGRGPYAKTEPAHLTAVPEYVPFPTTVAFRGNEARELFKPSLIPDESGVSESYRFSQSIEGCQLVAVRSNQEFEPEWLELLGELYQKPVIPIGMFPPPPPQDVAGHEETLRWLDRQEPNSVVYAAFGSEVKLTAEQLQRIALGLEASELPFIWAFRAPPDAGDGDGLPGGFKERVNGRGVVCRGWVPQVKFLAHASVGGFLTHAGWNSIAEGLANGVRLVLLPLMFEQGLNARQLAEKKVAVEVARDEDDGSFAANDIVDALRRVMVGEEGDEFGVKVKELAKVFGDDEVNDRYVRDFLKCLSEYKMQRQG | 0.14 % area | 7.0 % area | 92.8 % area |  |  |  |  |  |  |  |  |  |  |
| UGTLB: Lycium barbarum UDP-glucosyltransferase GI_209954733, SEQ ID 10, E. coli lysate (protein, listed as Escherichia coli) MGTEVTVHKNTLRVLMFPWLAYGHISPFLNVAKKLVDRGFLIYLCSTAINLKSTIKKIPEKYSDSIQLIELHLPELPELPPHYHTTNGLPPHLNHTLQKALKMSKPNFSKILQNLKPDLVIYDLLQQWAEGVANEQNIPAVKLLTSGAAVLSYFFNLVKKPGVEFPFPAIYLRKNELEKMSELLAQSAKDKEPDGVDPFADGNMQVMLMSTSRIIEAKYIDYFSGLSNWKVVPVGPPVQDPIADDADEMELIDWLGKKDENSTVFVSFGSEYFLSKEDREEIAFGLELSNVNFIWVARFPKGEEQNLEDALPKGFLERIGDRGRVLDKFAPQPRILNHPSTGGFISHCGWNSVMESVDFGVPIIAMPIHLDQPMNARLIVELGVAVEIVRDDYGKIHREEIAEILKDVIAGKSGENLKAKMRDISKNLKSIRDEEMDTAAEELIQLCKNSPKLK |  |  |  | 3.12% | 43.11% | 53.78% | 1.29% | 9.21% | 13.49% | 4.07% | 66.67% | 5.27% |  |
| UGTSL2: Solanum lycopersicum UDP-glucosyltransferase GI_460410132, SEQ ID 9, E. coli lysate (protein, listed as Escherichia coli) MATNLRVLMFPWLAYGHISPFLNIAKQLADRGFLIYLCSTRINLESIIKKIPEKYADSIHLIELQLPELPELPPHYHTTNGLPPHLNPTLHKALKMSKPNFSRILQNLKPDLLIYDVLQPWAEHVANEQNIPAGKLLTSCAAVFSYFFSFRKNPGVEFPFPAIHLPEVEKVKIREILAKEPEEGGRLDEGNKQMMLMCTSRTIEAKYIDYCTELCNWKVVPVGPPFQDLITNDADNKELIDWLGTKHENSTVFVSFGSEYFLSKEDMEEVAFALELSNVNFIWVARFPKGEERNLEDALPKGFLERIGERGRVLDKFAPQPRILNHPSTGGFISHCGWNSAMESIDFGVPIIAMPIHNDQPINAKLMVELGVAVEIVRDDDGKIHRGEIAETLKSVVTGETGEILRAKVREISKNLKSIRDEEMDAVAEELIQLCRNSNKSK |  |  |  | 42.56% | 20.01% | 5.56% | 6.73% | 52.88% | 3.54% | 12.02% | 9.94% | 12.77% | LC-MS, peak area ratio (%) Reb D [2]: 1.70%; LC-MS, peak area ratio (%) Unknown peak #1 (MW966) RT = 22.60 min [2]: 4.48%; LC-MS, peak area ratio (%) Unknown peak #3 (MW966) RT = 29.50 min [2]: 25.70%; Rubusoside conv. (reactiontime) [4]: 80% (2 h.); LC-MS, peak area ratio (%) Stev [3]: 2.12% |
